Reference: US20040181033A1 (Amgen, published 2004)

T1: recombinant mature myostatin (human, UniProt O14793 267-375)
T1 sequence (looked up): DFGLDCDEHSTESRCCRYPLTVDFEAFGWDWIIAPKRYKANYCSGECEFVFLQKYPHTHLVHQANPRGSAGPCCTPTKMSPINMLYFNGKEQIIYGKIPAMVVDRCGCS


Assays:
[1] = target: T1, recombinant mature myostatin; test: cell-based or functional assay
[2] = target: T1, recombinant mature myostatin; test: cell-based or functional assay; remark: listed apart in the source

Row | IC50 (C2C12 pMARE-luc) [1] [nM] | IC50 (read off the curve) [2] [µM] | Binder
1 | ~83 |  | recombinant human activin receptor IIB/Fc chimera (Fc fusion, UniProt Q13705 19-134, looked up, not shown: a dimerising Fc or GST) SGRGEAETRECIYYNANWELERTNQSGLERCEGEQDKRLHCYASWRNSSGTIELVKKGCWLDDFNCYDRQECVATEENPQVYFCCCEGNFCNERFTHLPEAGGPEVTYEPPPTAPT
2 |  | ~20 | QGHCTRWPWMCPPY [TN8-19 peptide]
